Test results: article PMC2600739 (The Journal of Cell Biology, 2008)

Target: the molecule itself
Experiment: cross-linking

B1: JAM-L–HA (p513-JAM-L-HA vector), wild type (natural protein, human, UniProt Q86YT9 20-394, looked up)
chain: LNDLNVSPPELTVHVGDSALMGCVFQSTEDKCIFKIDWTLSPGEHAKDEYVLYYYSNLSVPIGRFQNRVHLMGDILCNDGSLLLQDVQEADQGTYICEIRLKGESQVFKKAVVLHVLPEEPKELMVHVGGLIQMGCVFQSTEVKHVTKVEWIFSGRRAKEEIVFRYYHKLRMSVEYSQSWGHFQNRVNLVGDIFRNDGSIMLQGVRESDGGNYTCSIHLGNLVFKKTIVLHVSPEEPRTLVTPAALRPLVLGGNQLVIIVGIVCATILLLPVLILIVKKTCGNKSSVNSTVLVKNTKKTNPEIKEKPCHFERCEGEKHIYSPIIVREVIEEEEPSEKSEATYMTMHPVWPSLRSDRNNSLEKKSGGGMPKTQQAF
In the case of B1, the “stoichiometry N” value is reported as 2.
